From patent publication US20030157533A1, “Nucleic acid labeling by Thermoanaerobacter thermohydrosulfuricus DNA polymerase I variants” (priority 2001, published 2003)
Numbering of substitutions follows the chain as printed. Numbers in names are those of the source.

B1: ΔTtsF412YD426R: exonuclease deficient truncated Tts DNA polymerase I with F412Y and D426R changes (SEQ ID No. 7) (protein, listed as Thermoanaerobacter thermohydrosulfuricus)
chain: MYKFLIIDGSSLMYRAYYALPMLTTSEGLPTNALYGFTMMLIKLIEEEKPDYIAIAFDKKAPTFRHKEYQDYKATRQAMPEELAEQVDYLKEIIDGFNIKTLELEGYEADDIIGTISKLAEEKGMEVLVVTGDRDALQLVSDKVKIKISKKGITQMEEFDEKAILERYGITPQQFIDLKGLMGDKSDNIPGVPNIGEKTAIKLLKDFGTIENLIQNLSQLKGKIKENIENNKELAIMSKRLATIKRDIPIEIDFEEYKVKKFNEEKLLELFNKLEFFSLIDNIKKESSIEIVDNHKVEKWSKVDIKELVTLLQDNRNIAFYPLIYEGEIKKIAFSFGKDTVYIDVFQTEDLKEIFEKEDFEFTTHEIKDFLVRLSYKGIECKSKYIDTAVMAYLLNPSESNYDLDRVLKKYLKVDVPSYEGIFGKGRDKKKIEEIDENILADYICSRCVYLFDLKEKLMNFIEEMDMKKLLLEIEMPLVEVLKSMEVSGFTLDKEVLKELSQKIDDRIGEILDKIYKEAGYQFNVNSPKQLSEFLFEKLNLPVIKKTKTGYSTDSEVLEQLVPYNDIVSDIIEYRQLTKLKSTYIDGFLPLMDENNRVHSNFKQMVTATGRISSTEPNLQNIPIREEFGRQIRRAFIPRSRDGYIVSADYSQIELRVLAHVSGDEKLIESFMNNEDIHLRTASEVFKVPMEKVTPEMRRAAKAVNYGIIYGISDYGLSRRLKISRKEAKEYINNYFERYKGVKDYIEKIVRFAKENGYVTTIMNRRRYIPEINSRNFTQRSQAERLAMNAPIQGSAADIIKMAMVKVYNDLKKLKLKSKLILQVHDELVVDTYKDEVDIIKKILKENMENVVQLKVPLVVEIGVGPNWFLAK
B2: D enzyme: 5′-3′ exonuclease deficient amino-terminally truncated Tts DNA polymerase I with unaltered aspartate at 426 (SEQ ID No. 3) (protein, listed as Thermoanaerobacter thermohydrosulfuricus)
chain: B1 chain with Y706F, R720D
B3: Tts F412Y: exonuclease deficient truncated Tts DNA polymerase I with F to Y change at position 412 (SEQ ID No. 5) (protein, listed as Thermoanaerobacter thermohydrosulfuricus)
chain: B1 chain with R720D

Assays:
Type in all cases: biochemical
[1] = tested on: human skeletal muscle mRNA; assay: cDNA labeling using Cy3 and Cy5-dUTP, microarray (FIG. 10); conditions: Cy3-dUTP or Cy5-dUTP, 50 degrees C.
Experimental: (§1) A typical 20 μl reaction Cy3 or Cy5 reaction had 1 μg of human skeletal muscle mRNA, oligo dT(25) and random nonamer primers and TtsFYDR polymerase enzyme in 1×reaction buffer (50 mM Tris, pH 8.0, 1 mM DDT, 40 mM KC, 100 uM dA,G and CTP and 50 um each of TTP and Cy3-dUTP or Cy5-dUTP depending on the reaction). Control mRNAs (APBiotech Inc.) of known sequence compositions were included in various concentrations to serve as dynamic range and gene expression ratio controls. Tts reactions were carried out at temperatures from 50 degrees C. Template RNA was hydrolyzed by alkali treatment and neutralized with HEPES.
(§2) Probes were purified using MultiScreen filters (Millipore) and quantified by spectrophotometry. Glass slides containing human cDNA gene targets were hybridized with equal amounts (30 pmol each) of Cy3 and Cy5 labeled cDNA probes. Slides were scanned using a GenePix® (Axon) scanner and quantified using ImageQuant software.

[2] = tested on: Globin mRNA template annealed to P-33 labeled primer; assay: Single nucleotide incorporation of Cy3.5-dCTP or dCTP on RNA template (reverse transcriptase reaction, FIG. 7); conditions: for incorporation of Cy3.5-dCTP (qualitative, P+1 band): lower concentrations (0.2 uM or lower) of dye-CTP
Experimental: The experiment shown in FIG. 7 investigates the relative efficiencies of incorporation of dye-CTP (Cy3.5-dCTP) and dCTP. Three enzyme preparations ΔTts, ΔTts F412Y, ΔTtsF412YD426R were analyzed in this experiment.
(§3) Optimized 1×buffer compositions for Reverse Transcriptase (RNA dependent DNA Polymerase) and DNA Polymerase (DNA dependent DNA polymerase) reactions for all variants of Tts Pol I are as follows. Tris, pH 8.0 (50 mM), KCl (40 mM), MgCl2 (3 mM), DTT (1 mM), DNA or RNA template (as needed), primer (5 to 50 femto mols), enzyme 0.5 to 1 units, dNTP or dNTP analog (varying concentrations as needed). In standard synthesis reactions, when full-length synthesis is monitored, 50 uM of all 4 dNTPs are included. Typical reaction volume is 10 ul. Reaction temperature was kept between 37-60 C. depending on the experimental needs. Reaction time was limited to 10 minutes for single nucleotide incorporation studies. Time was varied as needed for the purpose of the experiments, sometimes up to 1 hour if longer extensions are monitored.
The experiment shown in FIG. 7 investigates the relative efficiencies of incorporation of dye-CTP (Cy3.5-dCTP) and dCTP. Three enzyme preparations ΔTts, ΔTtsFY, ΔTtsF412YD426R were analyzed in this experiment.
In FIG. 7, Globin mRNA served as the template. A 5′ P-33 labeled primer (DNA 25-mer) was annealed to the template. Reactions were performed with varying concentrations of either Cy3.5-dCTP or dCTP alone. Inclusion of only one dNTP allowed incorporation of the next correct nucleotide alone. The sequence of the template-primer that allowed for the examination of single nucleotide “C” incorporation is shown below.
Lanes 1,2,3 and 4 contain 20, 2, 0.2, and 0.02 uM of dNTP or dye-dNTP. Lane with no label has no enzyme, to show the integrity of the starting P-33 labeled primer. Quantification of the single nucleotide extension product is one way to tell if DR change to in the enzyme led to any consequence. “P” indicates a radio labeled primer. “P+1” represents the elongated product by a single nucleotide or nucleotide analog. P+1 migrates slowly with the dye-dNTP conjugate. Note that the migration of Cy3.5 dCMP containing bands travel slowly on the gel compared to dCTP extended products. […] Essentially, incorporation is achieved at lower concentrations (less than 10 times) of dye-dNTP compared to that of the wild type polymerase. It is evident that the DR enzyme was able to incorporate Cy3.5 dCTP at concentrations as low as 0.2 uM (Cy3.5 dCTP) or even lower. […] In this experiment the template-primer is a mRNA annealed to radio labeled primer. Extension is monitored qualitatively as P+1 for the natural nucleotides and P+1* for dye labeled nucleotide. This is a promising first observation for potential use in microarray applications for cDNA probe labeling.

[3] = tested on: human skeletal muscle mRNA; assay: cDNA labeling using Cy3 and Cy5-dCTP, microarray (FIG. 9); conditions: Cy3-dCTP or Cy5-dCTP, 50 degrees C.
Experimental: as §1, with “TTP” for “CTP”, “CTP” for “TTP”, “Cy3-dCTP” for “Cy3-dUTP”, “Cy5-dCTP” for “Cy5-dUTP”
as §2

[4] = tested on: human skeletal muscle mRNA; assay: cDNA labeling using Cy3/Cy5-dCTP over a wide reaction temperature range, microarray (FIGS. 14a and b); conditions: reaction temperatures 37, 42, 45, 50, 55, 60 and 65 degrees; normalization factor of 2
Experimental: A 20 μl reaction Cy3 or Cy5 reaction had 1 μg of human skeletal muscle mRNA, oligo dT(25) and random nonamer primers and TtsFYDR polymerase enzyme in 1×reaction buffer (50 mM Tris, pH 8.0, 1 mM DDT, 40 mM KC, 100 uM dA,G and TTP and 50 um each of CTP and Cy3-dCTP or Cy5-dCTP depending on the reaction). Control mRNAs (APBiotech Inc.) of known sequence compositions were included in various concentrations to serve as dynamic range and gene expression ratio controls. Tts reactions were carried out at temperatures from 37, 42, 45, 50, 55, 60 and 65 degrees. For Superscript II, cDNA synthesis reactions were carried out at 42 C. (Life Technologies). Template RNA was hydrolyzed by alkali treatment and neutralized with HEPES.
Probes were purified using MultiScreen filters (Millipore) and quantified by spectrophotometry. Glass slides containing human cDNA gene targets were hybridized with equal amounts (30 pmol each) of Cy3 and Cy5 labeled cDNA probes. Slides were scanned using a GenePix® (Axon) scanner and quantified using ImageQuant software. A normalization factor of 2 (due to differences in the excitation efficiencies of Cy3 and Cy5) was applied to the observed ratio of raw flourescence signal. The figure illustrates precise determination of gene expression differences in Cy3 and Cy5 reactions.

[5] = tested on: defined DNA template-DNA primer; assay: Single nucleotide incorporation of dye-dCTP during DNA dependent DNA synthesis (FIG. 13); conditions: for incorporation of Cy3.5-dCTP (qualitative, P+1 band): lower concentrations (0.2 uM or lower) of dye-dCTP
Experimental: as §3
Primer extension was monitored using a defined DNA template-DNA primer.
In this experiment the relative efficiencies of incorporation of dye-CTP (Cy3.5-dCTP) was investigated. Three enzyme preparations were tested ΔTts, ΔTtsF412Y, and ΔTtsF412YD426R
Defined DNA shown below served as the template. A P-33 labeled primer (DNA 25 mer) was annealed to the template. Reactions were performed with varying concentrations of either Cy3.5-dCTP or dCTP alone. Inclusion of only one dNTP allowed incorporation of the next correct nucleotide alone. The sequence of the template-primer that allowed for the examination of single nucleotide “C” incorporation is shown below.
Lanes 1, 2, 3, 4 and 5 contain 20, 2, 0.2, 0.02 and 0 uM dye-dCTP. Lane 5 has no enzyme, to show the integrity of the starting p-33 labeled primer. Quantification of the single nucleotide extension product is one way to tell if DR change in the enzyme led to any consequence. “P” indicates a radio labeled primer. “P+1” represents the elongated product by a single nucleotide or nucleotide analog. P+1 migrates slowly with the dye-dNTP conjugate. Note that the migration of Cy3.5-dCTP containing band travel slowly on the gel compared to dCMP extended products. […] P+1 product is achieved between 10-100 fold less concentration of dye-dCTP with the enzyme having the DR change. Essentially, incorporation is achieved at a much lower concentration of dye-dNMP compared to the wild type enzyme. It is evident that the DR enzyme was able to incorporate Cy3.5-dCTP at concentrations as low as 0.2 uM or even lower.

Globin mRNA = assay: Direct RNA sequencing (FIG. 8); conditions: compared to retroviral reverse transcriptases
Description: Globin mRNA served as a template. The 50-mer DNA was used a primer. Standard sequencing components in Amersham Pharmacia Thermo Sequenase kit were employed for sequencing. P-33 labeled terminators (ddNTP) were obtained from Amersham Pharmacia Biotech. Post-sequencing reaction products were separated on 6% urea-polyacrylamide gels. AMV, Avian Myeloblastosis virus RT.

| Molecule | incorporation of Cy3 versus Cy5 in cDNA probes [1] | concentration of Cy3.5 dCTP at which the enzyme was able to incorporate ([2]; 10 min single nucleotide incorporation) [µM] | fold less concentration of dCTP at which P+1 product is achieved ([2]; dCTP, compared with enzymes without the DR change) | lower concentration of dye-dNTP at which incorporation is achieved compared to wild type polymerase ([2]; dye-CTP (Cy3.5-dCTP)) | incorporation of Cy3 versus Cy5 in cDNA probes [3] | normalized observed ratios of Cy3/Cy5 signal versus target ratios [4] | concentration of Cy3.5-dCTP at which the enzyme was able to incorporate [5] [µM] | fold less concentration of dye-dCTP at which P+1 product is achieved ([5]; dye-dCTP, compared with enzymes without the DR change) | incorporation of Cy3.5-dCTP (qualitative, P+1 band) [2] | incorporation of Cy3.5-dCTP (qualitative, P+1 band) [5] | quality of sequence information from short stretches of RNA (Globin mRNA) |
| --- | --- | --- | --- | --- | --- | --- | --- | --- | --- | --- | --- |
| B1 | near even incorporation of Cy3 and Cy5 | ≤ 0.2 | 10-100 fold | less than 10 times | near even incorporation of Cy3 and Cy5 | very close to the target ratios | ≤ 0.2 | 10-100 fold | – | – | – |
| B2 | – | – | – | – | – | – | – | – | relatively poor incorporation | relatively poor incorporation | – |
| B3 | – | – | – | – | – | – | – | – | decreased incorporation | decreased incorporation | excellent sequence information |
